Here are results for one substance from PMC5492851.

Assay [1] addresses cellular microtubules (polymerised tubulin) (human (endogenous in HeLa)) (UniProt P68363).
The target is the same in assay [2]. Put plainly: FRAP; live untreated reporter cells, 37°C, 5% CO2; EYFP bleached in a circular ROI of 2 μm radius in the cytoplasm; recovery fitted with two exponentials (A1 diffusing phase, A2 MT-bound phase).
For assay [3] the target is unchanged. Put plainly: FRAP; as a1, cells treated with 1 μM Nocodazole (30 min before and during FRAP) to disassemble microtubules.
Assay [4] has the same target. The source holds these as a separate data set.

Chain of UniProt P68363 (P68363 whole entry, chain 1 of 2): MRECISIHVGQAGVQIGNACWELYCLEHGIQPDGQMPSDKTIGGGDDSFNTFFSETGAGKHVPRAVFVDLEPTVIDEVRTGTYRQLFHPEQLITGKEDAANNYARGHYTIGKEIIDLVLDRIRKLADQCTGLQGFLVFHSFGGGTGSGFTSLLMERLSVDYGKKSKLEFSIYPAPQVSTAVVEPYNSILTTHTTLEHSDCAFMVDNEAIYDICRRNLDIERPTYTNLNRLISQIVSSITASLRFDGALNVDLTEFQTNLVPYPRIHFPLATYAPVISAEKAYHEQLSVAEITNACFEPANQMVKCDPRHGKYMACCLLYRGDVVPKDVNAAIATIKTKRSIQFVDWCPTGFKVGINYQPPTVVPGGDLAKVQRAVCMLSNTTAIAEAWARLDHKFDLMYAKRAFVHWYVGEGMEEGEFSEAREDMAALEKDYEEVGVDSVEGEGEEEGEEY
Chain of UniProt P68363 (P07437 whole entry, chain 2 of 2, further chain): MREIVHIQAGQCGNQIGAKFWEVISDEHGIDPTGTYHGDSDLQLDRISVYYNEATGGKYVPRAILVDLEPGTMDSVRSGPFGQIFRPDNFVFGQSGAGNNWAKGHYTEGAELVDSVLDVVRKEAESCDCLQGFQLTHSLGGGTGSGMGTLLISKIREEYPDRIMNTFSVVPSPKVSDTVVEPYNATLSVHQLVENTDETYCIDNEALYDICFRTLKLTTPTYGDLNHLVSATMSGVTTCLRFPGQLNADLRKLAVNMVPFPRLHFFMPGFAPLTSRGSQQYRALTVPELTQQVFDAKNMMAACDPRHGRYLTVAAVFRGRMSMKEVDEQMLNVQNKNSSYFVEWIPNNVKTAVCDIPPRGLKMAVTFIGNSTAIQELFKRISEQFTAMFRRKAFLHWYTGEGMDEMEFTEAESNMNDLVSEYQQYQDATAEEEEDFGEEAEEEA

“Conformational Sensitive Tau sensor (ECFP-Tau-EYFP, full length human Tau-D, 0N4R) (from UniProt P10636-6 1-383) (natural protein)” returned an NFRET of CST (intramolecular, ECFP to EYFP) along MTs in untreated cells in assay [1] of 14.5. In assay [2], this substance displayed a fraction of the mobile molecules in the MT-bound phase (A2) of 72% and a time constant of fluorescence recovery of the MT-bound phase (τ2) of 35.2 s. For the same substance, in assay [3], the fraction of the mobile molecules in the MT-bound phase (A2), with Nocodazole came out at 47%. Also, the NFRET of CST during treatment with 1 μM nocodazole (time course; at 10 min) in assay [4] is 50%.
